For experiment [1], the target named is T1, full-length trimeric SARS-CoV-2 Spike protein (Spike-H6) (SARS-CoV-2, N-glycosylated (22 N-glycosylation sites)).
T1 construct: also called trimeric Spike; full-length Spike-H6
Kind of experiment: ELISA screen. (In general: In an ELISA, binding on a coated surface is turned into a signal by an enzyme label.)

The target of experiment [2] is T2, human recombinant soluble ACE2 (human, UniProt Q9BYF1 18-740).
T2 construct: also called hrsACE2
Kind of experiment: ELISA screen.

The target in experiment [3] is T3, monomeric SARS-CoV-2 receptor binding domain (RBD-H6) (SARS-CoV-2, UniProt P0DTC2 319-541).
T3 construct: Made in HEK293-6E cells; also called RBD Spike; monomeric RBD
Kind of experiment: ELISA screen.

For experiment [4], the target named is T2, human recombinant soluble ACE2. Kind of experiment: ELISA.

23 molecules from patent publication EP4039268A1 (IMBA-Institut für Molekulare Biotechnologie GmbH, dated 2022) can be followed below.

T2 sequence (Q9BYF1 18-740 limits assumed): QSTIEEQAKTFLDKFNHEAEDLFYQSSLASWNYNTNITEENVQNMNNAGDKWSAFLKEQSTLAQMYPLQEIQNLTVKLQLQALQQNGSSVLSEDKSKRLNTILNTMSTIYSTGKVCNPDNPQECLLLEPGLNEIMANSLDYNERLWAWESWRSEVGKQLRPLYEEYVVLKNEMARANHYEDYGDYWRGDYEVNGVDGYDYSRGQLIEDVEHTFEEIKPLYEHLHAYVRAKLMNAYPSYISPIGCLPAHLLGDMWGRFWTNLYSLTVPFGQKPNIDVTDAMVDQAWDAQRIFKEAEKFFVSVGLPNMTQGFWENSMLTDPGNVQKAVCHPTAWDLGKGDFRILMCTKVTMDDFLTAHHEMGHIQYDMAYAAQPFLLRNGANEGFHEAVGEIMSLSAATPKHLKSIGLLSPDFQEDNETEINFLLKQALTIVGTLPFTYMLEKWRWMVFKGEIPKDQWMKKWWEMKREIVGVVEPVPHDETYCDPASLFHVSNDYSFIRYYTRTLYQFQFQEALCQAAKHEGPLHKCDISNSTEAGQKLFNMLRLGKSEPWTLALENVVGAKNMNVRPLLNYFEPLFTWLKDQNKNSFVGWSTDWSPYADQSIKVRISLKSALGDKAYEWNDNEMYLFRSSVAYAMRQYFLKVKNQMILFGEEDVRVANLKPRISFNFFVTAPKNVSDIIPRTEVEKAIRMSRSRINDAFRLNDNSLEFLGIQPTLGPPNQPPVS

B1: Clec1a CRD-mouse IgG2a-Fc fusion protein (Fc fusion)
chain: YGDKCYQFYKESKNWQSCEYFCLADNATMLKISTQEELDFAMPQSYSEFFYSYWTGLSRNGSGKAWLWTDGTPYSFELFEIIIDPTNLRNRDCMTIFNGKAYSKDCKELRRCACEGGGSGGGSGGGS
Consider B1, for which the “Mean normalized OD” value was -0.005 OD in experiment [1], -0.006 OD in experiment [2] and 0.01 OD in experiment [3].

B2: Reg1 CRD-mouse IgG2a-Fc fusion protein (Fc fusion)
chain: ISCPEGSNAYSSYCYYFTEDRLTWADADLFCQNMNSGYLVSVLSQAEGNFVASLIKESGTTDANVWTGLHDPKRNRRWHWSSGSLFLYKSWATGSPNSSNRGYCVSLTSNTGYKKWKDDNCDAQYSFVCKFGGGSGGGSGGGS
For B2, the results for the “Mean normalized OD” value in experiment [1], in experiment [2] and in experiment [3] were 1.55 OD, -0.073 OD and 0.009 OD, respectively.

B3: Cd302 CRD-mouse IgG2a-Fc fusion protein (Fc fusion)
chain: FQGSCYAFLQVTINVENIEDVRKQCTDHGADMVSIHNEEENAFILDTLQKRWKGPDDLLLGMFYDTDDATFKWYDHSNMTFDKWADQDGEDLVDTCGFLYTKTGEWRKGDCEISSVEGTLGGGSGGGSGGGS
B3: the “Mean normalized OD” value was -0.002 OD in experiment [1], -0.002 OD in experiment [2] and 0.001 OD in experiment [3].

B4: Cd69 CRD-mouse IgG2a-Fc fusion protein (Fc fusion)
chain: YKRTCYFFSTTTKSWALAQRSCSEDAATLAVIDSEKDMTFLKRYSGELEHWIGLKNEANQTWKWANGKEFNSWFNLTGSGRCVSVNHKNVTAVDCEANFHWVCSGGGSGGGSGGGS
With B4, the “Mean normalized OD” value in experiment [1] was 0.001 OD; in experiment [2], -0.022 OD; in experiment [3] it was 0.001 OD.

B5: Sell CRD-mouse IgG2a-Fc fusion protein (Fc fusion)
chain: WTYHYSEKPMNWENARKFCKQNYTDLVAIQNKREIEYLENTLPKSPYYYWIGIRKIGKMWTWVGTNKTLTKEAENWGAGEPNNKKSKEDCVEIYIKRERDSGKWNDDACHKRKAALCGGGSGGGSGGGS
Turning to B5, the figures for the “Mean normalized OD” value in experiment [1], in experiment [2] and in experiment [3] were -0.016 OD, -0.23 OD and -0.041 OD, respectively.

B6: Clec3a CRD-mouse IgG2a-Fc fusion protein (Fc fusion)
chain: VHKKCYLASEGLKHYHEANEDCISKGGTLVVPRNSDEINALRDYGKRSLPGVNDFWLGINDMVTEGKFLDVHGFAVSFLNWDRAQPSGGKRENCVLFSQSAQGKWSDEACRSSKRYICEGGGSGGGSGGGS
For B6, the binding result in experiment [4] was “no binding (tested: 10 µg/ml)”. In addition, the “Mean normalized OD” value in experiment [1] was determined as 0.098 OD; in experiment [2], 0.045 OD; in experiment [3], 0.039 OD.

B7: Clec2d CRD-mouse IgG2a-Fc fusion protein (Fc fusion)
chain: VENKCFYFSEYPSNWTFAQAFCMAQEAQLARFDNQDELNFLMRYKANFDSWIGLHRESSEHPWKWTDNTEYNNTIPIRGEERFAYLNNNGISSTRIYSLRMWICSKLNSYSLHCQTGGGSGGGSGGGS
Take B7: the results for the “Mean normalized OD” value in experiment [1], in experiment [2] and in experiment [3] were -0.106 OD, -0.506 OD and 0.024 OD, respectively.

B8: Siglec1 CRD-mouse IgG2a-Fc fusion protein (Fc fusion)
chain: TWGVSSPKNVQGLSGSCLLIPCIFSYPADVPVSNGITAIWYYDYSGKRQVVIHSGDPKLVDKRFRGRAELMGNMDHKVCNLLLKDLKPEDSGTYNFRFEISDSNRWLDVKGTTVTVTGGGSGGGSGGGS
Turning to B8, the results for the “Mean normalized OD” value in experiment [1], in experiment [2] and in experiment [3] were 0 OD, -0.002 OD and 0 OD, respectively.

B9: Sftpa1 CRD-mouse IgG2a-Fc fusion protein (Fc fusion)
chain: not shown
As for B9, the “Mean normalized OD” value in experiment [1] was 0.005 OD; in experiment [2], -0.092 OD; in experiment [3] it was 0.002 OD.

B10: Reg3g CRD-mouse IgG2a-Fc fusion protein (Fc fusion)
chain: YGSYCYALFSVSKNWYDADMACQKRPSGHLVSVLSGAEASFLSSMIKSSGNSGQYVWIGLHDPTLGYEPNRGGWEWSNADVMNYINWETNPSSSSGNHCGTLSRASGFLKWRENYCNLELPYVCKGGGSGGGSGGGS
Take B10: the “Mean normalized OD” value in experiment [1] is -0.009 OD; in experiment [2] it was -0.014 OD; in experiment [3] it was 0.017 OD.

B11: Reg2 CRD-mouse IgG2a-Fc fusion protein (Fc fusion)
chain: INCPEGANAYGSYCYYLIEDRLTWGEADLFCQNMNAGHLVSILSQAESNFVASLVKESGTTASNVWTGLHDPKSNRRWHWSSGSLFLFKSWATGAPSTANRGYCVSLTSNTAYKKWKDENCEAQYSFVCKFGGGSGGGSGGGS
B11: the results for the “Mean normalized OD” value in experiment [1], in experiment [2] and in experiment [3] were 0.056 OD, -0.042 OD and 0.026 OD, respectively.

B12: Clec3b CRD-mouse IgG2a-Fc fusion protein (Fc fusion)
chain: VNLKCLLAFTQPKTFHEASEDCISQGGTLGTPQSELENEALFEYARHSVGNDANIWLGLNDMAAEGAWVDMTGGLLAYKNWETEITTQPDGGKAENCAALSGAANGKWFDKRCRDQLPYICQGGGSGGGSGGGS
On to B12, for which the binding result in experiment [4] was “no binding (tested: 10 µg/ml)”. The “Mean normalized OD” value in experiment [1] is 0.001 OD; in experiment [2], 0.001 OD; in experiment [3], 0 OD.

B13: Reg3a CRD-mouse IgG2a-Fc fusion protein (Fc fusion)
chain: YRSHCYALVMTPKSWFQADLVCQKRPSGHLVSILSGGEASFVSSLVNGRVDNYQDIWIGLHDPTMGQQPNGGGWEWSNSDVLNYLNWDGDPSSTVNRGHCGSLTASSGFLKWGDYYCDGTLPFVCKGGGSGGGSGGGS
Turning to B13, the “Mean normalized OD” value in experiment [1] was 0.006 OD; in experiment [2], -0.132 OD; in experiment [3], 0.039 OD.

B14: Lgals4_1 CRD-mouse IgG2a-Fc fusion protein (Fc fusion)
chain: YKRPIPGGLSVGMSVYIQGMAKENMRRFHVNFAVGQDDGADVAFHFNPRFDGWDKVVFNTMQSGQWGKEEKKKSMPFQKGKHFELVFMVMPEHYKVVVNGNSFYEYGHRLPVQMVTHLQVDGDLELQSINFLGGGSGGGSGGGS
On to B14, for which the binding result in experiment [4] is reported as “no binding (tested: 10 µg/ml)”. In addition, the “Mean normalized OD” value in experiment [1] turned out to be 0.152 OD; in experiment [2], 0.2 OD.

B15: Chodl CRD-mouse IgG2a-Fc fusion protein (Fc fusion)
chain: VKHPCYKMAYFHELSSRVSFQEARLACESEGGVLLSLENEAEQKLIESMLQNLTKPGTGISDGDFWIGLLRSGDGQTSGACPDLYQWSDGSSSQFRNWYTDEPSCGSEKCVVMYHQPTANPGLGGPYLYQWNDDRCNMKHNYICKGGGSGGGSGGGS
Turning to B15, the “Mean normalized OD” value is 0.002 OD in experiment [1], -0.001 OD in experiment [2] and 0.001 OD in experiment [3].

B16: Acan CRD-mouse IgG2a-Fc fusion protein (Fc fusion)
chain: not shown
With B16, the binding result in experiment [4] is reported as “no binding (tested: 10 µg/ml)”. Further, the “Mean normalized OD” value was 0.023 OD in experiment [1], 0.081 OD in experiment [2] and 0.035 OD in experiment [3].

B17: Clec2l CRD-mouse IgG2a-Fc fusion protein (Fc fusion)
chain: YGRKCYYFSEEPRDWNTGRQYCHTHEAALAVIQSQKELEFMFKFTRREPWIGLRRVGDDFHWVNGDPFDPDTFTISGMGECVFVEPTRLVSTECLTTRPWVCSGGGSGGGSGGGS
For the molecule B17, in experiment [4], the binding result is reported as “no binding (tested: 10 µg/ml)”. Besides, the “Mean normalized OD” value in experiment [1] was -0.001 OD; in experiment [2], 0 OD; in experiment [3] it was 0 OD.

B18: Asgr1 CRD-mouse IgG2a-Fc fusion protein (Fc fusion)
chain: YEGSCYWFSSSVRPWTEADKYCQLENAHLVVVTSRDEQNFLQRHMGPLNTWIGLTDQNGPWKWVDGTDYETGFQNWRPEQPDNWYGHGLGGGEDCAHFTTDGRWNDDVCRRPYRWVCEGGGSGGGSGGGS
On to B18, for which the binding result in experiment [4] is “no binding (tested: 10 µg/ml)”. Further, the “Mean normalized OD” value is 0.121 OD in experiment [1] and 0.004 OD in experiment [2].

B19: Olr1 CRD-mouse IgG2a-Fc fusion protein (Fc fusion)
chain: HKENCYLFHGPFSWEKNRQTCQSLGGQLLQINGADDLTFILQAISHTTSPFWIGLHRKKPGQPWLWENGTPLNFQFFKTRGVSLQLYSSGNCAYLQDGAVFAENCILIAFSICQGGGSGGGSGGGS
Turning to B19, the binding result in experiment [4] was “no binding (tested: 10 µg/ml)”. Besides, the “Mean normalized OD” value came out at 0.083 OD in experiment [1] and 0.116 OD in experiment [2].

B20: Siglec12 CRD-mouse IgG2a-Fc fusion protein (Fc fusion)
chain: PQEVFTLNVERKVVVQEGLCVLVPCNFSYLKKRLTDWTDSDPVHGFWYREGTDRRKDSIVATNNPIRKAVKETRNRFFLLGDPWRNDCSLNIREIRKKDAGLYFFRLERGKTKYNYMWDKMGGGSGGGSGGGS
Regarding B20, the “Mean normalized OD” value in experiment [1] is 0.046 OD; in experiment [2], -0.105 OD; in experiment [3] it was -0.021 OD.

B21: Atrn CRD-mouse IgG2a-Fc fusion protein (Fc fusion)
chain: VGNSCLKITTAKENYDNAKLSCRNHNAFLASLTSQKKVEFVLKQLRLMQSSQSMSKLTLTPWVGLRKINVSYWCWEDMSPFTNSLLQWMPSEPSDAGFCGILSEPSTRGLKAATCINPLNGSVCEGGGSGGGSGGGS
For B21, the binding result in experiment [4] is listed as “no binding (tested: 10 µg/ml)”. Further, the “Mean normalized OD” value in experiment [1] is 0.002 OD; in experiment [2], 0.002 OD; in experiment [3], 0.001 OD.

B22: Clec18a CRD-mouse IgG2a-Fc fusion protein (Fc fusion)
chain: IDGDCFMVSPEADTYYGAKMKCQGKGGVLAQIESQKVQDILAFYLGRLETTNEVTDSDFETKNFWIGLTYKAAKDSFRWTTGEHQSFTSFAFGQPDNQGFGNCVEMQASAAFNWNDQRCKTRNRYICQGGGSGGGSGGGS
Turning to B22, the “Mean normalized OD” value in experiment [1] is 0.022 OD; in experiment [2] it was -0.013 OD; in experiment [3], 0 OD.

B23: Reg3b CRD-mouse IgG2a-Fc fusion protein (Fc fusion)
chain: YGSYCYALFQIPQTWFDAELACQKRPGGHLVSVLNSAEASFLSSMVKRTGNSYQYTWIGLHDPTLGAEPNGGGWEWSNNDVMNYFNWERNPSTALDRAFCGSLSRASGFLKWRDMTCEVKLPYVCKGGGSGGGSGGGS
As to B23, the “Mean normalized OD” value is 0.005 OD in experiment [1], -0.009 OD in experiment [2] and 0.004 OD in experiment [3].
